± gives the standard deviation of the averaged measurements.
B1: library; a variant is named by its letters at N, in order (parent)
chain: GCUGUCACCGGUGUAUUACCCUAGUGGUCGACCGGUCUGAUGAGUCUNNNNNNAGACGAAACAGC

What was measured:
hypoxanthine [1] = variants of: B1; test: FACS-Seq fitted mean relative fluorescence mCherry/BFP without ligand (log10 relative fluorescence); ligand: hypoxanthine (xanthine aptamer); higher = higher reporter protein expression; conditions: HEK293T, ligand present: no
In short: (§1)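 Sorting into 6 bins by mCherry/BFP followed 48 h of incubation with or without ligand. The cells were enriched HEK293T libraries lentivirally bearing an mCherry reporter with the ribozyme switch and an EF1α-BFP marker, and bin genomic DNA was PCR-amplified, barcoded and sequenced on MiSeq. Fluorescence is the fitted normal mean of the bin counts. Means were fitted on log10(mCherry/BFP), scaled to five spiked-in control ribozymes.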

hypoxanthine [2] = variants of: B1; test: normalized RNA/DNA level with ligand (relative to sTRSVctl = 100) (log10 (% of sTRSVctl)); ligand: hypoxanthine (xanthine aptamer); higher = less ribozyme self-cleavage, higher mRNA level; conditions: ligand concentration (+) RNA-Seq: 5 mM, HEK293T, reporter: mCherry (pCS4076), ligand present: yes
In short: (§2)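 Total RNA, extracted with EDTA 72 h after HEK293T cells were transfected with 4 µg per 6-well well of reporter-linked ribozyme switch library plasmids, was reverse-transcribed, amplified, barcoded and sequenced. Ligand, if used, was added 1 h before transfection. RNA level was derived from RNA reads divided by DNA reads and normalized to a spiked-in non-cleaving sequence or to the top sequences. This was multiplied by 100 and log10-transformed, with the top set of 25 sequences and a ≥100 DNA read minimum.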

hypoxanthine [3] = variants of: B1; test: normalized RNA/DNA level without ligand (relative to sTRSVctl = 100) (log10 (% of sTRSVctl)); ligand: hypoxanthine (xanthine aptamer); higher = less ribozyme self-cleavage, higher mRNA level; conditions: HEK293T, reporter: mCherry (pCS4076), ligand present: no
In short: as §2

hypoxanthine [4] = variants of: B1; test: FACS-Seq fitted mean relative fluorescence mCherry/BFP with ligand (log10 relative fluorescence); ligand: hypoxanthine (xanthine aptamer); ligand concentration (+) FACS-Seq: 5 mM; higher = higher reporter protein expression; conditions: HEK293T, ligand present: yes
In short: as §1

Variant | FACS-Seq fitted mean (log10) (hypoxanthine [1]) | normalized RNA/DNA level with ligand (log10) (hypoxanthine [2]) | normalized RNA/DNA level without ligand (log10) (hypoxanthine [3]) | FACS-Seq fitted mean (log10) (hypoxanthine [4])
GUGUGU | 0.3521 ± 0.0033 | 1.894 ± 0.0042 | 1.64 ± 0.023 | 0.466 ± 0.13
GUGUGA | 0.33 ± 0.037 | 1.905 ± 0.0085 | 1.58 ± 0.026 | 0.67 ± 0.024
GUGUGC | 0.169 ± 0.0029 | 1.801 ± 0.013 | 1.36 ± 0.089 | 0.597 ± 0.033
GUGUGG | 0.0226 ± 0.011 | 1.807 ± 0.0054 | 1.27 ± 0.025 | 0.5793 ± 0.0024
CUGAUA | 0.486 ± 0.026 | 1.877 ± 0.003 | 1.7 ± 0.055 | 0.601 ± 0.13
UUGAGC | 0.0741 ± 0.098 | 1.977 ± 0.003 | 1.89 ± 0.025 | 0.129 ± 0.018
UUGAGG | 0.402 ± 0.054 | 1.98 ± 0.027 | 1.7199 ± 0.00097 | 0.578 ± 0.02
UUGAGA | 0.452 ± 0.082 | 1.96 ± 0.015 | 1.53 ± 0.067 | 0.649 ± 0.057
GUCGCA | 0.304 ± 0.021 | 1.94 ± 0.037 | 1.788 ± 0.0024 | 0.56 ± 0.0098
AUGACA | 0.303 ± 0.11 | 1.909 ± 0.013 | 1.8 ± 0.021 | 0.344 ± 0.049
AUGACG | 0.0397 ± 0.012 | 1.807 ± 0.0069 | 1.354 ± 0.011 | 0.3727 ± 0.0035
GUGGCG | 0.283 ± 0.0056 | 1.94 ± 0.02 | 1.608 ± 0.011 | 0.342 ± 0.023
GUGCCG | 0.6409 ± 0.0059 | 1.912 ± 0.0077 | 1.55 ± 0.025 | 0.557 ± 0.12
GUCUCG | 0.392 ± 0.059 | 1.94 ± 0.094 | 1.7 ± 0.022 | 0.575 ± 0.11
GUCUCU | 0.359 ± 0.039 | 1.97 ± 0.039 | 1.98 ± 0.092 | 0.302 ± 0.052
AUGAAA | 0.631 ± 0.058 | 1.87 ± 0.021 | 1.7 ± 0.033 | 0.625 ± 0.011
AUGAAC | 0.618 ± 0.07 | 1.9 ± 0.025 | 1.73 ± 0.025 | 0.583 ± 0.02
AUGAAU | 0.418 ± 0.023 | 1.907 ± 0.01 | 1.66 ± 0.027 | 0.644 ± 0.066
AUGAAG | -0.113 ± 0.019 | 1.73 ± 0.031 | 1.13 ± 0.053 | 0.639 ± 0.0078
UUGUAU | -0.614 ± 0.05 | 1.94 ± 0.077 | 1.93 ± 0.026 | -0.338 ± 0.072
CUCUGC | -0.384 ± 0.044 | 1.892 ± 0.0033 | 1.882 ± 0.0062 | -0.335 ± 0.067
CUGGGG | 0.345 ± 0.011 | 1.86 ± 0.05 | 1.479 ± 0.0059 | 0.484 ± 0.061
GUGAUG | 0.204 ± 0.049 | 1.81 ± 0.038 | 1.34 ± 0.019 | 0.686 ± 0.037
GUGAGA | -0.285 ± 0.036 | 1.86 ± 0.025 | 1.5664 ± 0.0011 | -0.146 ± 0.2

Variant | FACS-Seq fitted mean (log10) (hypoxanthine [1]) | normalized RNA/DNA level with ligand (log10) (hypoxanthine [2]) | normalized RNA/DNA level without ligand (log10) (hypoxanthine [3]) | FACS-Seq fitted mean (log10) (hypoxanthine [4])
GUGAGC | 0.0785 ± 0.015 | 1.731 ± 0.017 | 1.15 ± 0.016 | 0.6585 ± 0.0046
GUGAGG | 0.174 ± 0.029 | 1.7 ± 0.039 | 1.2 ± 0.026 | 0.598 ± 0.051
AUCGCC | 0.477 ± 0.12 | 1.95 ± 0.028 | 1.91 ± 0.034 | -0.391 ± 0.0099
AUUACA | 0.157 ± 0.076 | 1.91 ± 0.033 | 1.776 ± 0.0047 | 0.407 ± 0.0063
AUUACG | 0.368 ± 0.015 | 1.84 ± 0.066 | 1.397 ± 0.00039 | 0.626 ± 0.068
CUUACC | 0.555 ± 0.022 | 1.91 ± 0.046 | 1.907 ± 0.0033 | 0.393 ± 0.022
CUUAAC | 0.554 ± 0.03 | 1.89 ± 0.059 | 1.82 ± 0.036 | 0.637 ± 0.05
GUGAAG | 0.168 ± 0.0046 | 1.73 ± 0.0073 | 1.15 ± 0.072 | 0.591 ± 0.023
AUGGGA | 0.29 ± 0.013 | 1.89 ± 0.043 | 1.56 ± 0.08 | 0.592 ± 0.042
CUGCGC | 0.135 ± 0.0047 | 2 ± 0.033 | 1.92 ± 0.08 | 0.18 ± 0.029
CUGCGA | -0.182 ± 0.027 | 1.98 ± 0.052 | 1.822 ± 0.01 | -0.114 ± 0.022
UUCUAA | 0.391 ± 0.23 | 1.961 ± 0.018 | 1.85 ± 0.077 | -0.13 ± 0.28
GUCGGA | -0.358 ± 0.082 | 1.98 ± 0.055 | 1.79 ± 0.027 | -0.116 ± 0.049
GUCGGG | 0.355 ± 0.068 | 1.882 ± 0.0031 | 1.58 ± 0.12 | -0.0447 ± 0.038
GUCGGC | 0.485 ± 0.026 | 1.91 ± 0.025 | 1.68 ± 0.042 | 0.81 ± 0.023
AUGUCU | 0.305 ± 0.037 | 1.957 ± 0.019 | 1.85 ± 0.046 | 0.0818 ± 0.041
GUGCAC | 0.5159 ± 0.0044 | 1.87 ± 0.046 | 1.672 ± 0.0021 | 0.536 ± 0.016
GUGCAG | 0.0446 ± 0.026 | 1.739 ± 0.0069 | 1.3 ± 0.099 | 0.427 ± 0.039
GUGCAA | 0.274 ± 0.033 | 1.904 ± 0.0021 | 1.69 ± 0.037 | 0.57 ± 0.059
GUGCAU | -0.413 ± 0.2 | 1.91 ± 0.038 | 1.74 ± 0.018 | -0.852 ± 0.077
UUGGCG | 0.088 ± 0.024 | 2.01 ± 0.034 | 1.87 ± 0.037 | 0.648 ± 0.069
UUGAUA | 0.161 ± 0.022 | 1.93 ± 0.047 | 1.806 ± 0.01 | 0.277 ± 0.015
GUGUCG | 0.585 ± 0.017 | 1.86 ± 0.034 | 1.604 ± 0.0026 | 0.628 ± 0.037
AUGCAG | 0.251 ± 0.022 | 1.756 ± 0.01 | 1.29 ± 0.019 | 0.682 ± 0.039

Variant | FACS-Seq fitted mean (log10) (hypoxanthine [1]) | normalized RNA/DNA level with ligand (log10) (hypoxanthine [2]) | normalized RNA/DNA level without ligand (log10) (hypoxanthine [3]) | FACS-Seq fitted mean (log10) (hypoxanthine [4])
AUGCAA | 0.192 ± 0.045 | 1.87 ± 0.022 | 1.72 ± 0.038 | 0.221 ± 0.068
GUUAAC | 0.164 ± 0.008 | 1.95 ± 0.021 | 1.8064 ± 0.0016 | -0.269 ± 0.1
GUUAAU | 0.528 ± 0.024 | 1.9 ± 0.02 | 1.8 ± 0.067 | 0.566 ± 0.0099
GUGCGU | 0.221 ± 0.019 | 1.972 ± 0.018 | 1.71 ± 0.044 | 0.479 ± 0.04
GUGCGG | 0.103 ± 0.016 | 1.88 ± 0.033 | 1.38 ± 0.081 | 0.585 ± 0.033
AUUAUA | 0.24 ± 0.022 | 1.928 ± 0.019 | 1.81 ± 0.028 | 0.402 ± 0.063
AUGUUU | 0.564 ± 0.028 | 1.95 ± 0.055 | 1.85 ± 0.03 | 0.43 ± 0.049
AUGUUG | 0.146 ± 0.039 | 1.85 ± 0.024 | 1.44 ± 0.075 | 0.386 ± 0.071
AUGUAU | -0.142 ± 0.082 | 1.925 ± 0.0046 | 1.73 ± 0.021 | 0.156 ± 0.0021
AUGUAA | 0.323 ± 0.0041 | 1.93 ± 0.036 | 1.68 ± 0.0086 | 0.279 ± 0.019
AUGUAC | 0.103 ± 0.13 | 1.893 ± 0.017 | 1.7 ± 0.026 | 0.149 ± 0.054
AUGUAG | -0.0834 ± 0.023 | 1.768 ± 0.0076 | 1.27 ± 0.1 | 0.176 ± 0.087
AUGAGA | 0.392 ± 0.088 | 1.85 ± 0.062 | 1.451 ± 0.0036 | 0.697 ± 0.0095
AUGAGG | -0.0108 ± 0.028 | 1.644 ± 0.0044 | 1.15 ± 0.056 | 0.252 ± 0.059
UUCGAU | 0.164 ± 0.024 | 1.88 ± 0.019 | 1.767 ± 0.00052 | 0.303 ± 0.0063
GUUACG | 0.564 ± 0.075 | 1.88 ± 0.03 | 1.59 ± 0.027 | 0.566 ± 0.043
GUUACU | 0.523 ± 0.11 | 1.946 ± 0.0064 | 1.89 ± 0.06 | 0.466 ± 0.036
GUUACC | -0.307 ± 0.2 | 1.91 ± 0.057 | 1.882 ± 0.018 | -0.559 ± 0.021
AUUAGG | 0.0666 ± 0.043 | 1.81 ± 0.045 | 1.31 ± 0.021 | 0.477 ± 0.051
AUUAGA | 0.629 ± 0.042 | 1.895 ± 0.013 | 1.71 ± 0.028 | 0.69 ± 0.04
AUUAGC | 0.269 ± 0.031 | 1.92 ± 0.037 | 1.77 ± 0.029 | 0.487 ± 0.023
AUGCUA | 0.499 ± 0.086 | 1.966 ± 0.0068 | 1.788 ± 0.0045 | 0.706 ± 0.029
GUGGGG | 0.0309 ± 0.01 | 1.841 ± 0.016 | 1.45 ± 0.029 | 0.399 ± 0.07

Reference: the supplement of paper PMC6757056
